Measurements from patent US20210268016A1.

Target: recombinant full-length human PrP^C (AA23-231) (human) (UniProt P04156)

Poly-d-glutamic acid sodium salt (peptide)
IC50: > 1000 nM
